Assay results as given in paper PMC11943158.
Like-named read-outs stand apart in the source and are kept apart here.

Key:
[1] = cycloheximide chase, Flag Western blot; settings: glycan lost
[2] = Flag Western blot; settings: glycan lost; control: Gli2-WT
[3] = O-GlcNAc at S355

B1: Gli2: S355A (protein)
parent chain: METSAPAPALEKKEAKSGLLEDSSFPDPGKKACPLAVAAAVAAHGVPQQLLPAFHAPLPIDMRHQEGRYHYDPHSVHSVHGPPTLSGSPVISDISLIRLSPHPAGPGESPFSAHHPYVNPHMEHYLRSVHSSPTLSMISAARGLSPADVAHEHLKERGLFSLAAPGTNPSDYYHQMTLMASHPTPYGDLLMQSGGAASAPHLHDYLNPVDASRFSSPRVTPRLSRKRALSISPLSDASLDLQRMIRTSPNSLVAYINNSRSSSAASGSYGHLSAGALSPAFTFPHPINPVAYQQILSQQRGLGSAFGHTPPLIQPSPTFLAQQPMTLTSISTMPTQLSSSSSNCLNDANQNKQNSESAVSSTVNPITIHKRSKVKTEAEGLRPASPLGLTQEQLADLKEDLDRDDCKQEAEVVIYETNCHWADCTKEYDTQEQLVHHINNEHIHGEKKEFVCRWQACTREQKPFKAQYMLVVHMRRHTGEKPHKCTFEGCSKAYSRLENLKTHLRSHTGEKPYVCEHEGCNKAFSNASDRAKHQNRTHSNEKPYICKIPGCTKRYTDPSSLRKHVKTVHGPDAHVTKKQRNDVHVRAPLLKENGDNEASAEPGGRGPEESVEASSTSHTVEDCLHIKAIKTESSGLCQSSPGAQSSCSSEPSPLGSAPNNDSGMEMPGTGPGSLGDLTALADTCPGADTSALAAPSTGGLQLRKHMSTVHRFEQLKREKLKSLKDSCSWAGPAPHTRNTKLPPLPVNGSVLENFNNTGGGGPAGLLPSQRLPELTEVTMLSQLQERRDSSTSTMSSAYTVSRRSSGISPYFSSRRSSEASPLGGLRPHNASSADSYDPISTDASRRSSEASQCSGGGPGLLNLTPAQQYNLRAKYAAATGGPPPTPLPGLDRVSLRTRLALLDAPERALPGACPHPLGPRRGSDGPTYSHGHGHGYAGAAPAFPHEGPNSSTRRASDPVRRPDPLILPRVQRFHSTHNMNPGSLPPCADRRGLHVQSHPSVDSNLTRNAYSPRPPSINENVVMEAVAAGVDGPGLECDLGLVEDELVLPDDVVQYIKAHTGGTLDDGIRQGYPTEGTGFPENSKLPSPGLQGHRRLAAADSNMGPSAPGLGGCQLSYSPSSNLNKSNMPVQWNEVSSGTVDALPTQVKPPPFPHSNLAVVQQKPAFGQYPGYNPQSVQSSSGGLDSTQPHLQLRGAPSASRGSYTQQPRQPAAGSQCLGMSAAMSPQASYSQAHPQLSPNIVSGSLNQFSPSCSNMAAKPSHLGLPQQMEVVPNATIMNGHQREHGVPNSSLAAVSQPHPVLSYPQQDSYQQGSNLLSSHQPGFMESQQNAGFGLMQPRPPLEPNTASRHRGVRSGQQQLYARTTGQAMVTSANQETAEAMPKGPAGTMVSLAPQPSQDTGRAQDQNTLYYYGQIHMYEQNGGCPAVQPQPPQPQACSDSIQPEPLPSPGVNQVSSTVDSQLLEPPQIDFDAIMDDGDHSSLFSGALSPTLLHNLSQNSSRLTTPRNSLTLPSIPAGISNMAVGDMSSMLTSLAEESKFLNMMT
- degradation_or_half_life ([1]; control: Gli2-WT): decreases
- expression_or_secretion [2]: decreases
- degradation_or_half_life [3]: decreases
- expression_or_secretion [3]: decreases

B2: Gli2: OSMI (protein)
parent chain: METSAPAPALEKKEAKSGLLEDSSFPDPGKKACPLAVAAAVAAHGVPQQLLPAFHAPLPIDMRHQEGRYHYDPHSVHSVHGPPTLSGSPVISDISLIRLSPHPAGPGESPFSAHHPYVNPHMEHYLRSVHSSPTLSMISAARGLSPADVAHEHLKERGLFSLAAPGTNPSDYYHQMTLMASHPTPYGDLLMQSGGAASAPHLHDYLNPVDASRFSSPRVTPRLSRKRALSISPLSDASLDLQRMIRTSPNSLVAYINNSRSSSAASGSYGHLSAGALSPAFTFPHPINPVAYQQILSQQRGLGSAFGHTPPLIQPSPTFLAQQPMTLTSISTMPTQLSSSSSNCLNDANQNKQNSESAVSSTVNPITIHKRSKVKTEAEGLRPASPLGLTQEQLADLKEDLDRDDCKQEAEVVIYETNCHWADCTKEYDTQEQLVHHINNEHIHGEKKEFVCRWQACTREQKPFKAQYMLVVHMRRHTGEKPHKCTFEGCSKAYSRLENLKTHLRSHTGEKPYVCEHEGCNKAFSNASDRAKHQNRTHSNEKPYICKIPGCTKRYTDPSSLRKHVKTVHGPDAHVTKKQRNDVHVRAPLLKENGDNEASAEPGGRGPEESVEASSTSHTVEDCLHIKAIKTESSGLCQSSPGAQSSCSSEPSPLGSAPNNDSGMEMPGTGPGSLGDLTALADTCPGADTSALAAPSTGGLQLRKHMSTVHRFEQLKREKLKSLKDSCSWAGPAPHTRNTKLPPLPVNGSVLENFNNTGGGGPAGLLPSQRLPELTEVTMLSQLQERRDSSTSTMSSAYTVSRRSSGISPYFSSRRSSEASPLGGLRPHNASSADSYDPISTDASRRSSEASQCSGGGPGLLNLTPAQQYNLRAKYAAATGGPPPTPLPGLDRVSLRTRLALLDAPERALPGACPHPLGPRRGSDGPTYSHGHGHGYAGAAPAFPHEGPNSSTRRASDPVRRPDPLILPRVQRFHSTHNMNPGSLPPCADRRGLHVQSHPSVDSNLTRNAYSPRPPSINENVVMEAVAAGVDGPGLECDLGLVEDELVLPDDVVQYIKAHTGGTLDDGIRQGYPTEGTGFPENSKLPSPGLQGHRRLAAADSNMGPSAPGLGGCQLSYSPSSNLNKSNMPVQWNEVSSGTVDALPTQVKPPPFPHSNLAVVQQKPAFGQYPGYNPQSVQSSSGGLDSTQPHLQLRGAPSASRGSYTQQPRQPAAGSQCLGMSAAMSPQASYSQAHPQLSPNIVSGSLNQFSPSCSNMAAKPSHLGLPQQMEVVPNATIMNGHQREHGVPNSSLAAVSQPHPVLSYPQQDSYQQGSNLLSSHQPGFMESQQNAGFGLMQPRPPLEPNTASRHRGVRSGQQQLYARTTGQAMVTSANQETAEAMPKGPAGTMVSLAPQPSQDTGRAQDQNTLYYYGQIHMYEQNGGCPAVQPQPPQPQACSDSIQPEPLPSPGVNQVSSTVDSQLLEPPQIDFDAIMDDGDHSSLFSGALSPTLLHNLSQNSSRLTTPRNSLTLPSIPAGISNMAVGDMSSMLTSLAEESKFLNMMT
- degradation_or_half_life, half_life ([1]; control: PM without OSMI): decreases
- degradation_or_half_life [3]: decreases, PM extended half-life from approximately 6 to 24 h; OSMI eliminated this
